{"source": "paper PMC4281115", "about": "“pH-Dependent Conformational Changes in the HCV NS3 Protein Modulate Its ATPase and Helicase Activities”", "key": {"[1]": {"target": "T1, NS3hel (NS3 helicase domain) (Hepatitis C virus genotype 1b …, UniProt Q9WMX2 1193-1657)", "T1 sequence (Q9WMX2 1193-1657)": "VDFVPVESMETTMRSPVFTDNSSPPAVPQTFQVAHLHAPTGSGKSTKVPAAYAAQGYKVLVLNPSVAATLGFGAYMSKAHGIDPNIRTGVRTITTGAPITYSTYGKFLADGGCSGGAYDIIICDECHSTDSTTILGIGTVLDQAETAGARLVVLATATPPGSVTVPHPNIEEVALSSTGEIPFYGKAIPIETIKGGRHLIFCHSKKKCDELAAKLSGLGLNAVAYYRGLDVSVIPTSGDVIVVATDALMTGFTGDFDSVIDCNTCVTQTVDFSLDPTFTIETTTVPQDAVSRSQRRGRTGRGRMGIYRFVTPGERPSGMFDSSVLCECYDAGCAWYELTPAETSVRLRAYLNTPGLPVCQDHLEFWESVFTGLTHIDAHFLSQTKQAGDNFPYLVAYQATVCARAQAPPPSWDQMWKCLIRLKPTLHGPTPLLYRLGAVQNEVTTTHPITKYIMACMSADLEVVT", "experiment": "fluorescence anisotropy; pH 6.4, 2 mM MgCl2; 25 mM MOPS-NaOH pH 6.4 or 7.2, 2 mM MgCl2, 25 C; 25 nM 5-FAM-dT20 with 0-10 uM NS3hel or 0-5 uM NS3FL, 10 min (anisotropy); 1 uM protein with 0-1 uM ssDNA (Trp)", "details": "protein: recombinant; tags: N-terminal 6xHis-TEV, cleaved; label: 5'-carboxyfluorescein (5-FAM); single strand"}, "[2]": {"target": "T2, NS3FL (full-length NS3) (Hepatitis C virus genotype 1b …, UniProt Q9WMX2 1027-1657)", "T2 sequence (Q9WMX2 1027-1657)": "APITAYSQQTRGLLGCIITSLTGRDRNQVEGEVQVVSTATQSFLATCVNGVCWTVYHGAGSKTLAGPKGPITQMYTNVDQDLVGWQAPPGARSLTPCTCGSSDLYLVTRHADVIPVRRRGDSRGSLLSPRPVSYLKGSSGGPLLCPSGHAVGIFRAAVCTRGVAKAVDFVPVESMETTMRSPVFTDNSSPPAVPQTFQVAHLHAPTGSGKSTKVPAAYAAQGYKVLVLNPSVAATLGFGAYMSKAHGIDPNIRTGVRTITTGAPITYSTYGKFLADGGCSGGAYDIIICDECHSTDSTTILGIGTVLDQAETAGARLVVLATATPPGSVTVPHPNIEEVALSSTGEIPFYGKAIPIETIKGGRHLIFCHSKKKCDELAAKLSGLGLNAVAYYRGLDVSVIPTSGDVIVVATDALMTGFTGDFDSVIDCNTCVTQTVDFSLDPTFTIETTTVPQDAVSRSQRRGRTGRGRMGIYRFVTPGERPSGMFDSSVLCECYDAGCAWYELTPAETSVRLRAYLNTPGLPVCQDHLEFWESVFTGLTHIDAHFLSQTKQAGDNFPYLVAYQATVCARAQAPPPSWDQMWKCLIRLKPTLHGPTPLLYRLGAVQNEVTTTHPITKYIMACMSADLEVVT", "experiment": "fluorescence anisotropy; pH 6.4, 2 mM MgCl2; 25 mM MOPS-NaOH pH 6.4 or 7.2, 2 mM MgCl2, 25 C; 25 nM 5-FAM-dT20 with 0-10 uM NS3hel or 0-5 uM NS3FL, 10 min (anisotropy); 1 uM protein with 0-1 uM ssDNA (Trp)", "details": "protein: recombinant; tags: C-terminal 6xHis; label: 5'-carboxyfluorescein (5-FAM); single strand"}, "[3]": {"target": "T1, NS3hel (NS3 helicase domain)", "experiment": "fluorescence anisotropy; pH 7.2, 2 mM MgCl2; 25 mM MOPS-NaOH pH 6.4 or 7.2, 2 mM MgCl2, 25 C; 25 nM 5-FAM-dT20 with 0-10 uM NS3hel or 0-5 uM NS3FL, 10 min (anisotropy); 1 uM protein with 0-1 uM ssDNA (Trp)", "details": "protein: recombinant; tags: N-terminal 6xHis-TEV, cleaved; label: 5'-carboxyfluorescein (5-FAM); single strand"}, "[4]": {"target": "T2, NS3FL (full-length NS3)", "experiment": "fluorescence anisotropy; pH 7.2, 2 mM MgCl2; 25 mM MOPS-NaOH pH 6.4 or 7.2, 2 mM MgCl2, 25 C; 25 nM 5-FAM-dT20 with 0-10 uM NS3hel or 0-5 uM NS3FL, 10 min (anisotropy); 1 uM protein with 0-1 uM ssDNA (Trp)", "details": "protein: recombinant; tags: C-terminal 6xHis; label: 5'-carboxyfluorescein (5-FAM); single strand"}}, "data": [{"binder": "TTTTTTTTTTTTTTTTTTTT (ssDNA)", "note": "[5-FAM oligo(dT)20]", "values": [{"measurement": "Kd", "setting": "[1]", "result": "~42", "unit": "nM"}, {"measurement": "Kd", "setting": "[2]", "result": "~28", "unit": "nM"}, {"measurement": "Kd", "setting": "[3]", "result": "~254", "unit": "nM"}, {"measurement": "Kd", "setting": "[4]", "result": "~49", "unit": "nM"}]}]}
